Measured values taken from patent US20090238791A1 (INSTITUT NATIONAL DE LA SANTE ET DE LA RECHERCHE MEDICALE …, published 2009).

Key:
Recombinant human IL-15 [1] = target: T1, Recombinant human IL-15 (human, UniProt P40933 49-162); test: SPR
T1 construct: also called rIL-15; human rIL-15

Recombinant human IL-15 [2] = target: T1, Recombinant human IL-15; test: SPR, analysis of sensorgrams
Experimental: (§1) These experiments were performed with a BIACore 2000 biosensor (BIACore, Uppsala, Sweden). rIL-15 was covalently linked to CM5 sensor chips, and the binding of increasing concentrations of sIL-15Rα-IL-2, sIL-15Rα-sushi-IL-2 or sIL-15Rα-sushi was monitored. Analysis of sensograms was performed using BIAlogue kinetics evaluation software.

Recombinant human IL-15 [3] = target: T1, Recombinant human IL-15; test: SPR, BIAcore 2000
Experimental: as §1

Recombinant human IL-15 [4] = target: T1, Recombinant human IL-15; test: Competition with 125I-rIL-15 (200 pM) binding to IL-15Rα on TF-1 cells
Experimental: The three soluble forms of IL-15Rα were tested for their ability to compete out the binding of radio-iodinated IL-15 to IL-15Rα expressed by the human cell line TF-1 which also expresses the IL-15Rγ chain, but not the IL-15Rβ chain (FIG. 1D).

Recombinant human IL-15 [5] = target: T1, Recombinant human IL-15; test: cell-based or functional assay
[6] = target: T2, IL-15Rβ/γ complex (intermediate affinity receptor), human (human, UniProt P14784 27-551; P31785 23-369); test: 125I-sIL-15Rα-sushi saturation binding to TF-1β cells in the presence of 1 nM rIL-15
T2 construct: whole, on cells; Found on Mo-7 cells, which express IL-15Rβ/γ but not IL-15Rα; also called IL-15Rbeta/gamma; IL-2Rβ/γ
Experimental: Labeling with [¹²⁵I]-iodine of human rIL-15, sIL-15Rα-sushi and RLI fusion protein, and subsequent binding experiments were performed as described previously (19). For internalization, cells were equilibrated at 4° C. with labeled sIL-15Rα-sushi or RLI, and the temperature switched to 37° C. At different time intervals, two samples were washed and centrifuged. One of the cell pellets was treated with glycine-HCl buffer 0.2 M, pH 2.5, whereas the other was treated with PBS pH 7.4 at 4° C. for 5 min. After centrifugation, total ligand binding was determined from the pellet of the cells treated with PBS, whereas the membrane bound and internalized fractions were determined respectively from the supernatant and pellet of cells treated with acid pH.
As further shown in FIG. 6D, the radiolabeled sIL-15Rα-sushi was efficiently internalized. Radiolabeled RLI fusion protein also bound to TF1β cells (FIG. 6E). […] Once bound, the RLI was also efficiently internalized (FIG. 6F).

T1 sequence (P40933 49-162 limits assumed): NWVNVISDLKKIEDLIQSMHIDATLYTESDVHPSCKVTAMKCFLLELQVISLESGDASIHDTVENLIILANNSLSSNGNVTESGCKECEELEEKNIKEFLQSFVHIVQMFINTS
T2 sequence (P14784 whole entry, chain 1 of 2): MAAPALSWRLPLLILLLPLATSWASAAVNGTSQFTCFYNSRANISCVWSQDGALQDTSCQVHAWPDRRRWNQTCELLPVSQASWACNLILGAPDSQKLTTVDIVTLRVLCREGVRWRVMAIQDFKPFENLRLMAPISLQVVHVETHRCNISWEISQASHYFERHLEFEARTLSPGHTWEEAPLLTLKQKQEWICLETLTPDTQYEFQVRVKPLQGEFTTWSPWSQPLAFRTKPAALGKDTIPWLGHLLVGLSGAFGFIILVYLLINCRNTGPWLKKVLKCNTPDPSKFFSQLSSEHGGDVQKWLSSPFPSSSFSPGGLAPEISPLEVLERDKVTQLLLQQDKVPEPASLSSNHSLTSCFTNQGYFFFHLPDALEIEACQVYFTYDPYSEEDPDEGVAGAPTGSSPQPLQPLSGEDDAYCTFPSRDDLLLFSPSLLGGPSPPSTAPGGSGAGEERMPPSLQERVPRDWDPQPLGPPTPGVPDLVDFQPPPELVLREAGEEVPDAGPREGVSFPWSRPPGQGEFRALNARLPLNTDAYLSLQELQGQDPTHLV
T2 sequence (P31785 whole entry, chain 2 of 2): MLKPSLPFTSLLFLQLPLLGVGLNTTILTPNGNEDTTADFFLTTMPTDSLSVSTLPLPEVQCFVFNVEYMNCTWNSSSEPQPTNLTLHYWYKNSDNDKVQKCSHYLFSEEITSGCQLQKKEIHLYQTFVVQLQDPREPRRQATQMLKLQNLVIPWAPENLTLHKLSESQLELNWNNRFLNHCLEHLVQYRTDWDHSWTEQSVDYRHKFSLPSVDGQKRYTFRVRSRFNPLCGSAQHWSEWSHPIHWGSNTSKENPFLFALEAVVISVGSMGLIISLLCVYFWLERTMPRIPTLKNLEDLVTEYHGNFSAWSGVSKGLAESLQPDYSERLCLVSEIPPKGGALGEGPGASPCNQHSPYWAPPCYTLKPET

B1: sIL-15Rα-Sushi+ (receptor)
chain: ITCPPPMSVEHADIWVKSYSLYSRERYICNSGFKRKAGTSSLTECVLNKATNVAHWTTPSLKCIRDPALVHQRPAPP
notes: Expressed in SF9 insect cells; No sentence names it for Sushi+; also called Sushi15+; Flag-Factor Xa tagged sIL-15Rα-Sushi+; not shown: Flag-Factor Xa tag
fold increase in binding affinity compared to sIL-15Rα-Sushi-IL-2 (Recombinant human IL-15 [1]): 4 fold | fold lower affinity than the full length soluble IL-15Rα (Recombinant human IL-15 [1]): 3 fold | Kd (Recombinant human IL-15 [2]): 0.102 nM

B2: sIL-15Rα-sushi (receptor)
chain: ITCPPPMSVEHADIWVKSYSLYSRERYICNSGFKRKAGTSSLTECVLNKATNVAHWTTPSLKCIRD
notes: also called soluble sushi domain; not shown: Vector-encoded tag of pQE30; The protein was trapped on Ni-NTA agarose
Kd (Recombinant human IL-15 [3]): 1.5 nM | koff (Recombinant human IL-15 [3]): 0.00038 s⁻¹ | kon (Recombinant human IL-15 [3]): 250000 M⁻¹ s⁻¹ | IC50 (Recombinant human IL-15 [4]): 1.3 nM | IC50 of the potentiation of Mo-7 proliferation driven by a fixed concentration of rIL-15 (1 nM) (Recombinant human IL-15 [5]): 3.5 nM | Kd [6]: 3.5 nM
